Measured values from US20040253689A1 (published 2004).

Experiments:
^125I-IGF-I = molecular target: T1, ^125I-IGF-I (human, UniProt P05019 49-118, radioiodinated (^125I, 2000 Ci/mmol); labelled residue not stated); assay: solution binding of ^125I-IGF-I, charcoal separation; reference wild-type CHO-hIGFBP-3
T1 construct: also called insulin growth factor-I
Description: (§1) Binding of ¹²⁵I-IGF-I and ¹²⁵I-IGF-II in solution —¹²⁵I-IGF-I or ¹²⁵I-IGF-II (˜25,000 cpm) was incubated overnight at 4° C. with different concentrations of recombinant hIGFBP-3 standard (R&D Systems), or purified wild-type or mutant CHO-hIGFBP-3 in 0.4 ml phosphate-buffered saline supplemented with 0.2% fatty acid-free bovine serum albumin. Following the addition of 0.5 ml of a 5% suspension of activated charcoal (Sigma) to adsorb unbound IGF tracer, the samples were centrifuged. Radioactivity bound to hIGFBP-3 remained in the charcoal supernate and was quantified in a gamma counter (Yang et al. (1993), supra). DNA synthesis—DNA synthesis was measured in CCL64 cells by the incorporation of the thymidine analog BrdU into newly synthesized as previously described (Wu et al. (2000), supra). Quiescent cells in serum-free medium were stimulated to synthesize DNA by adding EGF. EGF was used to stimulate proliferation instead of serum to avoid introducing IGFs. In brief, the cells were plated in 96-well microtiter plates (30,000 cells/well) in 0.2 ml of DMEM containing 10% fetal calf serum, and incubated for 3 h at 37° C. […] BrdU (10 μM) was added for 2-3 h, the cells were fixed, and BrdU incorporation was quantified by an immunocolorimetric assay using monoclonal antibody to BrdU conjugated to peroxidase. […] The absorbance at 450 nm was measured in a scanning multiwell spectrophotometer.

^125I-IGF-II = molecular target: T2, ^125I-IGF-II (human, UniProt P01344 25-91, radioiodinated (^125I, 2000 Ci/mmol); labelled residue not stated); assay: solution binding of ^125I-IGF-II, charcoal separation; reference wild-type CHO-hIGFBP-3
T2 construct: also called insulin growth factor-II
Description: as §1

T1 sequence (P05019 49-118 limits assumed): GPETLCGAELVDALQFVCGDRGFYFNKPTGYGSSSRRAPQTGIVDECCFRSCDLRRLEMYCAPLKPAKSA
T2 sequence (P01344 25-91 limits assumed): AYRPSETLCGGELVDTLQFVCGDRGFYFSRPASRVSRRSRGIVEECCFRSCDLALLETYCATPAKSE

Row | fold lower concentration of wild-type CHO-hIGFBP-3 that still bound more than the mutant at 200 ng/ml (^125I-IGF-I) | fold lower concentration of wild-type CHO-hIGFBP-3 that still bound more than the mutant at 200 ng/ml (^125I-IGF-II) | Binder
1 | > 80 fold | > 80 fold | 4m-hIGFBP-3 (R75A, L77A, L80A, L81A mutant CHO-hIGFBP-3) (other, human, mature; Same tagged construct as the wild-type CHO-hIGFBP-3, with four alanine substitutions; also called quadruple mutant) HHHHHHGMASMTGGQQMGRDLYDDDDKGASSAGLGPVVRCEPCDARALAQCAPPPAVCAELVREPGCGCCLTCALSEGQPCGIYTERCGSGLRCQPSPDEAAPAQAAADGRGLCVNASAVSRLRAYLLPAPPAPGNASESEEDRSAGSVESPSVSSTHRVSDPKFHPLHSKIIIIKKGHAKDSQRYKVDYESQSTDTQNFSSESKRETEYGPCRREMEDTLNHLKFLNVLSPRGVHIPNCDKKGFYKKKQCRPSKGRKRGFCWCVDKYGQPLPGYTTKGKEDVHCYSMQSK
2 | 80 fold | > 80 fold | 6m-hIGFBP-3 (I56A, Y57A, R75A, L77A, L80A, L81A mutant CHO-hIGFBP-3) (other, human, mature; Same tagged construct as the wild-type CHO-hIGFBP-3, with six alanine substitutions; Positions count on mature hIGFBP-3, not on the precursor; also called 6m-CHO-hIGFBP-3) HHHHHHGMASMTGGQQMGRDLYDDDDKGASSAGLGPVVRCEPCDARALAQCAPPPAVCAELVREPGCGCCLTCALSEGQPCGAATERCGSGLRCQPSPDEAAPAQAAADGRGLCVNASAVSRLRAYLLPAPPAPGNASESEEDRSAGSVESPSVSSTHRVSDPKFHPLHSKIIIIKKGHAKDSQRYKVDYESQSTDTQNFSSESKRETEYGPCRREMEDTLNHLKFLNVLSPRGVHIPNCDKKGFYKKKQCRPSKGRKRGFCWCVDKYGQPLPGYTTKGKEDVHCYSMQSK
